Consider one molecule from patent US20240309076A1.

For the assay, the target named is recombinant full-length human Tau (human) (UniProt P10636). Nature of the assay: indirect ELISA, Tau coated on the plate.

B1: NI-502.4P3 (antibody, V domains shown)
VH: EVQLVQSGAEVKKPGESLKISCKVSGYDFSKYWIGWVRQMPGKGLEWMGLIYPGDSDTRYSPSLEGQVSISADKSISAAYLQFSSLKASDSAMYYCVRKGYSAYLGGWFDPWGQGTLVTVSS
VL: DIQLTQSPDSLAASLGERVTINCRSSQNIFYNSNNKNFLAWYQQKAGQSPKLLIYWASTRESGVPDRFSGSGSGTDFTLTISGLQAGDVAVYFCQQYFTDAPTFGGGTKVEIK
On to B1, for which the EC50 turned out to be 15 nM.
